From article PMC6202329
Blank lines part the entries; values can stand above or below the substance they belong to.

Key:
Test in all cases: complementary split luciferase
Conditions in all cases: n = 5; parent: est. 1.0; read off a plot
[1] = molecular target: ARAF(DDEE/L358M) fused to Nluc or Cluc (UniProt P10398)
[2] = molecular target: ARAF(DDEE/L358M/APE) fused to Nluc or Cluc (UniProt P10398)
[3] = molecular target: ARAF(DDEE/L358M/R362H/APE) fused to Nluc or Cluc (UniProt P10398)
[4] = molecular target: ARAF(DDEE/L358M/R362H) fused to Nluc or Cluc (UniProt P10398)

response [1]: 3.3
Substance: ARAF (wild type) fused to Nluc or Cluc (from UniProt P10398) DGEE; L358M

response [2]: 5.4
Substance: ARAF (wild type) fused to Nluc or Cluc (from UniProt P10398) DGEE; L358M; APE

response [3]: 3.6
Substance: ARAF (wild type) fused to Nluc or Cluc (from UniProt P10398) DGEE; L358M; APE; R362H

response [4]: 1.1
Substance: ARAF (wild type) fused to Nluc or Cluc (from UniProt P10398) DGEE; L358M; R362H
